In patent US20120058906A1 (published 2012):

T1: rHuman Erythropoietin R/Fc Chimera, CF (R&D Systems Cat#963-ER) (human, UniProt P19235 25-250)
T1 construct: Bought Fc chimera; also called EPO R/Fc; Epo R; Fc part of the bought chimera not given
T1 sequence: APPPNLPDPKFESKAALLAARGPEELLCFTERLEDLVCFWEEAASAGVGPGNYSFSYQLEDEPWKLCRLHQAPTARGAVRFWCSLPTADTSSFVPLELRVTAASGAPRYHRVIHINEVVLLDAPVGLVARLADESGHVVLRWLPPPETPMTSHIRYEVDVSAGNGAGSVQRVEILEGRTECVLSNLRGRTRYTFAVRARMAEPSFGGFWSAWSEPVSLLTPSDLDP

T2: rHuman Erythropoietin R/Fc Chimera, CF (R&D Systems Cat#963-ER) (human, UniProt P19235 25-250)
T2 construct: Bought reagent; also called EPO R/Fc; Epo R; Fc part of the bought chimera not given
T2 sequence: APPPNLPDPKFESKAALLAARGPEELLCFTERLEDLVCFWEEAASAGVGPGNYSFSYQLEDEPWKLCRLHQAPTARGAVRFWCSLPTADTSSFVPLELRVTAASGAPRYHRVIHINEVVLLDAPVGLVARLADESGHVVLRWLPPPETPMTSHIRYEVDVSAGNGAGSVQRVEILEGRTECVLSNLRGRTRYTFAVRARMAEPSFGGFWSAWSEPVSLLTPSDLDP


Experiments:
[1] = target: T1, rHuman Erythropoietin R/Fc Chimera, CF …; test: ECL (MSD Multi-Spot) binding assay, antigen spotted on plate; Fab 240 nM; blank spot 316
[2] = target: T3, Recombinant Human DLL4 (R&D Systems Cat#1506-D4/CF) (human, UniProt Q9NR61 27-524); test: as above
T3 construct: Bought recombinant protein; also called delta-like protein 4; rHuman DLL4

[3] = target: T4, rHuman Notch-1/Fc Chimera, CF (R&D Systems Cat#3647-TK) (human, UniProt P46531 19-526); test: as above
T4 construct: Bought Fc chimera; Fc part of the bought chimera not given

[4] = target: T5, rHuman CD44/Fc Chimera, CF (R&D Systems Cat#3660-CD) (human, UniProt P16070 21-220); test: as above
T5 construct: Bought Fc chimera; Fc part of the bought chimera not given

[5] = target: T6, rHuman P-Cadherin/Fc Chimera, CF (R&D Systems Cat#861-PC) (human, UniProt P22223 108-654); test: as above
T6 construct: Bought Fc chimera; also called CDH3; Fc part of the bought chimera not given

[6] = target: T2, rHuman Erythropoietin R/Fc Chimera, CF …; test: ECL (MSD multi-spot), antigen spotted on plate; Fab 1410 nM; blank spot 709
[7] = target: T7, Recombinant Human DLL4 (R&D Systems Cat#1506-D4/CF) (human, UniProt Q9NR61 27-524); test: as above
T7 construct: Bought reagent; also called delta-like protein 4

[8] = target: T8, rHuman ErbB2/Fc Chimera, CF (R&D Systems Cat#1129-ER) (human, UniProt P04626 23-652); test: as above
T8 construct: Bought reagent; also called HER2/neu; human epidermal growth factor 2 receptor; Fc part of the bought chimera not given

[9] = target: T9, rHuman EGF R/Fc Chimera, CF (R&D Systems Cat#344-ER) (human, UniProt P00533 25-645); test: as above
T9 construct: Bought reagent; also called epidermal growth factor receptor; Fc part of the bought chimera not given

[10] = target: T10, rHuman HGF R/c-MET/Fc Chimera, CF (R&D Systems Cat#358-MT/CF) (human, UniProt P08581 25-932); test: as above
T10 construct: Bought reagent; also called HGF R/Fc; hepatocyte growth factor receptor; Fc part of the bought chimera not given

[11] = target: T11, rHuman Notch-1/Fc Chimera, CF (R&D Systems Cat#3647-TK) (human, UniProt P46531 19-526); test: as above
T11 construct: Bought reagent; Fc part of the bought chimera not given

[12] = target: T12, rHuman CD44/Fc Chimera, CF (R&D Systems Cat#3660-CD) (human, UniProt P16070 21-220); test: as above
T12 construct: Bought reagent; Fc part of the bought chimera not given

[13] = target: T13, rHuman IGF-1 sR (IGF-1 sR), CF (R&D Systems Cat#391-GR) (human, UniProt P08069 31-932); test: as above
T13 construct: Bought soluble receptor; also called insulin-like growth factor-1 soluble receptor; IGF-R1

[14] = target: T14, rHuman P-Cadherin/Fc Chimera, CF (R&D Systems Cat#861-PC) (human, UniProt P22223 108-654); test: as above
T14 construct: Bought reagent; also called CDH3; Fc part of the bought chimera not given

[15] = target: T8, rHuman ErbB2/Fc Chimera, CF (R&D …); test: ECL (MSD multi-spot), antigen spotted on plate; Fab 44.1 nM; blank spot 200
[16] = target: T11, rHuman Notch-1/Fc Chimera, CF (R&D …); test: as above
[17] = target: T12, rHuman CD44/Fc Chimera, CF (R&D Systems …); test: as above
[18] = target: T14, rHuman P-Cadherin/Fc Chimera, CF (R&D …); test: as above
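Also: blank spot per well as comparator with Hit at signal to blank ratio of 4 or more.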

| ECL signal [1] | ECL signal [2] | ECL signal [3] | ECL signal [4] | ECL signal [5] | ECL signal [6] | ECL signal [7] | ECL signal [8] | ECL signal [9] | ECL signal [10] | ECL signal [11] | ECL signal [12] | ECL signal [13] | ECL signal [14] | ECL signal [15] | ECL signal [16] | ECL signal [17] | ECL signal [18] | Binder |
| --- | --- | --- | --- | --- | --- | --- | --- | --- | --- | --- | --- | --- | --- | --- | --- | --- | --- | --- |
| 478 | 1270 | 368 | 470 | 383 | – | – | – | – | – | – | – | – | – | – | – | – | – | Fab VH6-1_IGHD3-3*01_IGHJ4*01 & V4-3_IGLJ4*01 (Fab, V domains shown, Tested as a Fab made in E. coli; also called IGHV6-1*01) VH: QVQLQQSGPGLVKPSQTLSLTCAISGDSVSSNSAAWNWIRQSPSRGLEWLGRTYYRSKWYNDYAVSVKSRITINPDTSKNQFSLQLNSVTPEDTAVYYCAREYYDFWSGYYTDYFDYWGQGTLVTVSS VL: QPVLTQPTSLSASPGASARLTCTLRSGINLGSYRIFWYQQKPESPPRYLLSYYSDSSKHQGSGVPSRFSGSKDASSNAGILVISGLQSEDEADYYCMIWHSSASFVFGGGTQLIIL |
| – | – | – | – | – | 4310 | 1260 | 932 | 1070 | 903 | 1030 | 885 | 426 | 1060 | 347 | 331 | 302 | 343 | Fab VH1-46_IGHD3-10*01_IGHJ4*01 & B3_IGKJ1*01 (Fab, V domains shown, also called IGHV1-46*01) VH: QVQLVQSGAEVKKPGASVKVSCKASGYTFTSYYMHWVRQAPGQGLEWMGIINPSGGSTSYAQKFQGRVTMTRDTSTSTVYMELSSLRSEDTAVYYCAREYYYGSGSYYNDYFDYWGQGTLVTVSS VL: not shown |
